Data reported in paper PMC11284795, “Development of Zalfermin, a Long-Acting Proteolytically Stabilized FGF21 Analog” (Journal of Medicinal Chemistry, 2024).
Numbering of substitutions follows the chain as printed. One block for each binder: values may come before it.

Key:
[1] = molecular target: T1, FGFR1c/KLB: ectodomain of human FGFR1c fused to Fc, with human beta-klotho (human, UniProt P11362 22-376; Q86Z14 53-996); assay: AlphaScreen or HTRF; competition: biotinylated FGF21 on streptavidin donor beads, ectodomain of human FGFR1c, FGFR2c, FGFR3c or FGFR4 fused to Fc on Protein A acceptor beads, human KLB protein added; signal inhibited by increasing doses of FGF21 analog; 0.1% ovalbumin; indirect measure of binding affinity, reported as IC50; conditions: both partners purified
T1 construct: ectodomain of human fibroblast growth factor receptor 1, c-isoform (FGFR1c); human beta-klotho (KLB, printed there as BKL) protein; FGFR-Fc on Protein A acceptor beads, KLB added in solution; the bought KLB is, as I recall, the extracellular domain; also called FGF-receptor complex; source: bought: R&D Systems (both proteins)

[2] = molecular target: T2, human beta-klotho (KLB) on HEK293 cells (human, UniProt Q86Z14 1-1044); assay: cell-based or functional assay
[3] = molecular target: cynomolgus monkey beta-klotho (KLB) on HEK293 cells (cynomolgus monkey); assay: cell-based or functional assay
[4] = molecular target: T2, human beta-klotho (KLB) on HEK293 cells; assay: cell-based or functional assay; remark: listed apart in the source
[5] = molecular target: T3, mouse beta-klotho (KLB) on HEK293 cells (mouse, UniProt Q99N32 1-1043); assay: cell-based or functional assay
T3 sequence (looked up): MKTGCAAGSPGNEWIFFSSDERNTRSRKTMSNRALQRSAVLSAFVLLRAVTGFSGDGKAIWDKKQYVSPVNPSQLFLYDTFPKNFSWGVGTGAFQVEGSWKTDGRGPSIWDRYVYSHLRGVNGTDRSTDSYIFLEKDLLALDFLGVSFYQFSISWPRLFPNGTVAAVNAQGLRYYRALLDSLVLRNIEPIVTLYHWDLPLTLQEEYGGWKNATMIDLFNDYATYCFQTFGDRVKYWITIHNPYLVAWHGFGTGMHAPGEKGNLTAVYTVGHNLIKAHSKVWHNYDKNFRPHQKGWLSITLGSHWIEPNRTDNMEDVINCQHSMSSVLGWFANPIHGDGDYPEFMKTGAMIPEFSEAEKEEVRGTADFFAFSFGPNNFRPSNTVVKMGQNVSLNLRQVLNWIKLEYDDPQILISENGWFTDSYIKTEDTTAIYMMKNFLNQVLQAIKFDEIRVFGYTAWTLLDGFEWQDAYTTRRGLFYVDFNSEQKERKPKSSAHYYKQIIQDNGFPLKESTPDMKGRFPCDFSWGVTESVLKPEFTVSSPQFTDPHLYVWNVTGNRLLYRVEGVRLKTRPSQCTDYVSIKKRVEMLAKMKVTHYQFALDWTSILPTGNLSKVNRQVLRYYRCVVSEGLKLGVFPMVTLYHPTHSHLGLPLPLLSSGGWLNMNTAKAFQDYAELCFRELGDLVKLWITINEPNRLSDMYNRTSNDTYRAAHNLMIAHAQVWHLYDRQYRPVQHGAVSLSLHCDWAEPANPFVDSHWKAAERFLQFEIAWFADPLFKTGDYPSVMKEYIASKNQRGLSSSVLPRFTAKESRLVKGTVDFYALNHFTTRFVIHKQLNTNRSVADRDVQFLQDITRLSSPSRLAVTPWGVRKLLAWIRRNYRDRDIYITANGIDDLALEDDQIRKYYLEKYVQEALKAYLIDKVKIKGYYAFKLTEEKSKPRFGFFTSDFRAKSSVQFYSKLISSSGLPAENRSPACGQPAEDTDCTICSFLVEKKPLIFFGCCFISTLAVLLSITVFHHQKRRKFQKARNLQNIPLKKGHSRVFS

[6] = molecular target: T1, FGFR1c/KLB: ectodomain of human FGFR1c …; assay: cell-based or functional assay
[7] = molecular target: FGFR3c/KLB: ectodomain of human FGFR3c fused to Fc, with human beta-klotho (human, UniProt P22607 23-375; Q86Z14 53-996); assay: cell-based or functional assay
[8] = molecular target: the molecule itself; assay: AF4-MALS; 15 at 49-88 mg/mL in 10 mM phosphate, pH 8.2 with 2% glycerol, 1 uL injected; running buffer 10 mM phosphate pH 8.2 with 10 mM NaCl; analysed again after dilution to 5 mg/mL
[9] = molecular target: human serum albumin (HSA) (human, UniProt P02768 25-609); assay: cell-based or functional assay
[10] = molecular target: BSA (albumin of the FAP incubations) (bovine, UniProt P02769 25-607); assay: cell-based or functional assay
Sequence of BSA (albumin of the FAP incubations) (P02769 25-607): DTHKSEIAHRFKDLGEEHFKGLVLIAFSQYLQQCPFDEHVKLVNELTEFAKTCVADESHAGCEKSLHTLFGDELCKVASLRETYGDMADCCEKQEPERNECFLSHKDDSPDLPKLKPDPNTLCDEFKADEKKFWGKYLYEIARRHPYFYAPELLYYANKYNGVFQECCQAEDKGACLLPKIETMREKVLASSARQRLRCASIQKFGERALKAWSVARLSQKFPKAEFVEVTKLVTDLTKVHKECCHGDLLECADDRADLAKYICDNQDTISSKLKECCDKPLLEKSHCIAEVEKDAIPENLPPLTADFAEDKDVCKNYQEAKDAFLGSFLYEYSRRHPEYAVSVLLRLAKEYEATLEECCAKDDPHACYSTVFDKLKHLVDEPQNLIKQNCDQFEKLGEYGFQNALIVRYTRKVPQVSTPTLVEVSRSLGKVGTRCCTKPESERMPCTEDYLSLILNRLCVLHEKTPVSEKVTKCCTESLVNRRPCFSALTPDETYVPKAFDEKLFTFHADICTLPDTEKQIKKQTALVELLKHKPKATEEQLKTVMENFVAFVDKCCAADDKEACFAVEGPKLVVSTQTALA

pIC50 [1]: 5.79 ± 0.05
potency (EC50) of ERK phosphorylation in HEK293 cells transfected with human KLB, without HSA [2]: 3.9 nM
B1: FGF21 analog 17 (-1A, 121Q, 168L, 180C, des181; C18 fatty diacid on 180C) (ligand, human)
chain: AHPIPDSSPLLQFGGQVRQRYLYTDDAQQTEAHLEIREDGTVGGAADQSPESLLQLKALKPGVIQILGVKTSRFLCQRPDGALYGSLHFDPEACSFRELLLEDGYNVYQSEAHGLPLHLPGQKSPHRDPAPRGPARFLPLPGLPPALPEPPGILAPQPPDVGSSDPLSLVGPSQGRSPSYC
modifications: C18 diacid gGlu-OEG-OEG-C2DA-Ac side chain on Cys180
notes: single amino acid N-terminal extension (-1A), giving the N-terminus AHPIP; human FGF21, mature hormone without its last residue Ser181; numbers count on: the mature protein; source: E. coli BL21 (DE3)-derived strain, inclusion bodies, purified; side chain conjugated to the Cys, purified by anion exchange (MonoQ)

mean EC50 of ERK phosphorylation in HEK293 cells overexpressing cynomolgus monkey KLB [3]: 1.8 nM
mean EC50 of ERK phosphorylation in HEK293 cells overexpressing human KLB (species qualification) [4]: 3 nM
mean EC50 of ERK phosphorylation in HEK293 cells overexpressing mouse KLB [5]: 0.3 nM
pIC50 [1]: 6.56 ± 0.89
potency EC50 of ERK phosphorylation in Ba/F3 cells overexpressing human KLB and FGFR1c, 0% HSA [6]: 3.7 nM
potency EC50 of ERK phosphorylation in Ba/F3 cells overexpressing human KLB and FGFR3c (chimera with the kinase domain of FGFR1c), 0% HSA [7]: 10.8 nM
potency (EC50) of ERK phosphorylation in HEK293 cells transfected with human KLB, without HSA [2]: 1.6 nM
B2: Met-FGF21 (1) (ligand, human)
chain: MHPIPDSSPLLQFGGQVRQRYLYTDDAQQTEAHLEIREDGTVGGAADQSPESLLQLKALKPGVIQILGVKTSRFLCQRPDGALYGSLHFDPEACSFRELLLEDGYNVYQSEAHGLPLHLPGNKSPHRDPAPRGPARFLPLPGLPPALPEPPGILAPQPPDVGSSDPLSMVGPSQGRSPSYAS
notes: single amino acid N-terminal extension (-1M), giving the N-terminus MHPIP; human FGF21, mature 181-residue hormone (N-terminus HPIP, C-terminus Ser181); numbers count on: the mature protein; also called human FGF21 with N-terminal Met extension; -1M; source: E. coli BL21 (DE3)-derived strain, inclusion bodies, purified (Q Sepharose FF, Phenyl FF, Source 30Q where needed)

pIC50 [1]: 6.18 ± 0.1
potency (EC50) of ERK phosphorylation in HEK293 cells transfected with human KLB, without HSA (with 0.1, 1.0 and 1.5% HSA: 1.4, 0.9 and 1.5 nM, Table 3) [2]: 2 nM
B3: stabilized backbone (4): -1A, 121Q, 168L FGF21 (ligand, human)
chain: B2 chain with M1A, N122Q, M169L
notes: single amino acid N-terminal extension (-1A), giving the N-terminus AHPIP; human FGF21, mature 181-residue hormone; numbers count on: the mature protein; also called stabilized backbone of 15; source: E. coli BL21 (DE3)-derived strain, inclusion bodies, purified (Q Sepharose FF, Phenyl FF, Source 30Q where needed)

mean EC50 of ERK phosphorylation in HEK293 cells overexpressing cynomolgus monkey KLB [3]: 1.4 nM
mean EC50 of ERK phosphorylation in HEK293 cells overexpressing human KLB (species qualification) [4]: 2.8 nM
mean EC50 of ERK phosphorylation in HEK293 cells overexpressing mouse KLB [5]: 0.1 nM
pIC50 [1]: 6.13 ± 0.8
potency (EC50) of ERK phosphorylation in HEK293/human KLB cells with 0.1, 1.0 and 1.5% HSA: 23, 195 and 198 nM (3.3 nM without HSA) [9]: 198 nM
potency EC50 of ERK phosphorylation in Ba/F3 cells overexpressing human KLB and FGFR1c, 0% HSA [6]: 4.1 nM
potency EC50 of ERK phosphorylation in Ba/F3 cells overexpressing human KLB and FGFR3c (chimera with the kinase domain of FGFR1c), 0% HSA [7]: 11.9 nM
t1/2 of 15 toward degradation by FAP in vitro in the presence of 0.1% albumin (27–57 min for 1, 15 and 5 without albumin) [10]: 7.47 h
potency (EC50) of ERK phosphorylation in HEK293 cells transfected with human KLB, without HSA [2]: 3.3 nM
B4: zalfermin (NNC0194-0499, 15) (ligand, human)
chain: B2 chain with M1A, N122Q, M169L, A181C
modifications: C18 diacid gGlu-OEG-OEG-C2DA-Ac side chain on Cys180
notes: single amino acid N-terminal extension (-1Ala), giving the N-terminus AHPIP; human FGF21, mature 181-residue hormone; numbers count on: the mature protein; 20.3 kDa; also called FGF21 analog 15; source: E. coli BL21 (DE3)-derived strain, inclusion bodies, purified; side chain conjugated to the Cys, purified by anion exchange (MonoQ)
binding result [8]: binds

pIC50 [1]: 5.72 ± 0.02
potency (EC50) of ERK phosphorylation in HEK293 cells transfected with human KLB, without HSA [2]: 39 nM
B5: FGF21 analog 18 (-1A, 121Q, 168L, 181C; C18 fatty diacid on 181C) (ligand, human)
chain: B2 chain with M1A, N122Q, M169L, S182C
modifications: C18 diacid gGlu-OEG-OEG-C2DA-Ac side chain on Cys181
notes: single amino acid N-terminal extension (-1A), giving the N-terminus AHPIP; human FGF21, mature 181-residue hormone; numbers count on: the mature protein; source: E. coli BL21 (DE3)-derived strain, inclusion bodies, purified; side chain conjugated to the Cys, purified by anion exchange (MonoQ)
